In patent US20230129812A1, “COMPOSITIONS AND METHODS FOR TREATING PULMONARY HYPERTENSION” (Acceleron Pharma Inc., priority 2020, published 2023):

Tests used:
[1] = molecular target: T1, activin B (Homo sapiens, UniProt P09529); assay: Biacore ligand binding profile, ActRIIA-Fc:ALK4-Fc heterodimer vs homodimers, anti-Fc capture (Example 17, Table 14); conditions: for activin B binding: Example 17; for ka / kd: ligand Activin B, Table 14
T1 sequence (P09529 293-407): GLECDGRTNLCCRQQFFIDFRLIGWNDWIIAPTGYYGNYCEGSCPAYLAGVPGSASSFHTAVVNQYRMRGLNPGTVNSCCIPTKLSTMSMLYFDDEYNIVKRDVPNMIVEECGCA
Procedure: (§1) A Biacore™-based binding assay was used to compare ligand binding selectivity of the ActRIIA-Fc:ALK4-Fc heterodimeric complex described above with that of ActRIIA-Fc and ALK4-Fc homodimeric complexes. The ActRIIA-Fc:ALK4-Fc heterodimer, ActRIIA-Fc homodimer, and ALK4-Fc homodimer were independently captured onto the system using an anti-Fc antibody. Ligands were injected and allowed to flow over the captured receptor protein. Results are summarized in Table 14 below, in which ligand off-rates (kd) most indicative of effective ligand traps are denoted in bold.

[2] = molecular target: T2, GDF3 (Homo sapiens, UniProt Q9NR23); assay: as above; conditions: ligand GDF3, Table 14
T2 sequence (Q9NR23 251-364): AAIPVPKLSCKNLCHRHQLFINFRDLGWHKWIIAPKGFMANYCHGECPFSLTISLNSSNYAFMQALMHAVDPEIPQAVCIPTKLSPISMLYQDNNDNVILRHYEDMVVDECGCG
Procedure: as §1

[3] = molecular target: T3, BMP6 (Homo sapiens, UniProt P22004); assay: as above; conditions: ligand BMP6, Table 14
T3 sequence (P22004 375-513): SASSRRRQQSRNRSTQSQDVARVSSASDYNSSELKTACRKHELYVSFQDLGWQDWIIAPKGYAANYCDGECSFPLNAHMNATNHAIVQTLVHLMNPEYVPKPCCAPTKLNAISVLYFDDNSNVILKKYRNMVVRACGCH
Procedure: as §1

[4] = molecular target: T4, activin AB (Homo sapiens, UniProt P08476+P09529); assay: as above; conditions: for ka / kd: ligand Activin AB, Table 14
T4 sequence (P08476 311-426): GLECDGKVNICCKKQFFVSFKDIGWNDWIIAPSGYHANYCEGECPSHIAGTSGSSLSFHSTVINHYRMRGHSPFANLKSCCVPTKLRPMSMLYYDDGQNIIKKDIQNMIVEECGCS
T4 sequence (P09529 293-407): T1 sequence (P09529 293-407)
Procedure: as §1

[5] = molecular target: T5, BMP10 (Homo sapiens, UniProt O95393); assay: as above
T5 sequence (O95393 317-424): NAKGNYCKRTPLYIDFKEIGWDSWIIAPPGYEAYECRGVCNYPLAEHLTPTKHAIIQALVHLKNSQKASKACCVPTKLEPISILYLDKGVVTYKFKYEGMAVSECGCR
Procedure: as §1

[6] = molecular target: T6, GDF11 (Homo sapiens, UniProt O95390); assay: as above; conditions: for ka / kd: ligand GDF11, Table 14
T6 sequence (O95390 299-407): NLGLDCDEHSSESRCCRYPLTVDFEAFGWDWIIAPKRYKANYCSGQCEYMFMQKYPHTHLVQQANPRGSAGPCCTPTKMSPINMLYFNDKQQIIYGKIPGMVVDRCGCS
Procedure: as §1

[7] = molecular target: T7, BMP9 (Homo sapiens, UniProt Q9UK05); assay: as above; conditions: ligand BMP9, Table 14
T7 sequence (Q9UK05 320-429): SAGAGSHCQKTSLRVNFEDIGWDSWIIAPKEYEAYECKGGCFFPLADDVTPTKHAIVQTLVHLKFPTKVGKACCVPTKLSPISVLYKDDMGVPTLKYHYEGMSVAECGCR
Procedure: as §1

[8] = molecular target: T8, activin AC (Homo sapiens, UniProt P08476+P55103); assay: as above; conditions: for ka / kd: ligand Activin AC, Table 14
T8 sequence (P08476 311-426): T4 sequence (P08476 311-426)
T8 sequence (P55103 237-352): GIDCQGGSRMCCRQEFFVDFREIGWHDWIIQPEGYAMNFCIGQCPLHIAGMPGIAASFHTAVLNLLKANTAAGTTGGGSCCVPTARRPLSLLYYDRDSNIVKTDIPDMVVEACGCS
Procedure: as §1

[9] = molecular target: T9, activin A (Homo sapiens, UniProt P08476); assay: as above; conditions: for ka / kd: ligand Activin A, Table 14
T9 sequence (P08476 311-426): T4 sequence (P08476 311-426)
Procedure: as §1

[10] = molecular target: T10, GDF8 (Homo sapiens, UniProt O14793); assay: as above; conditions: ligand GDF8, Table 14
T10 sequence (O14793 267-375): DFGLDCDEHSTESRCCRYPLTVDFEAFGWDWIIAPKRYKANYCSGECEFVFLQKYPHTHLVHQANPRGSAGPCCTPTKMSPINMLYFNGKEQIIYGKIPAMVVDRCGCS
Procedure: as §1

[11] = molecular target: T11, BMP7 (Homo sapiens, UniProt P18075); assay: as above; conditions: ligand BMP7, Table 14
T11 sequence (P18075 293-431): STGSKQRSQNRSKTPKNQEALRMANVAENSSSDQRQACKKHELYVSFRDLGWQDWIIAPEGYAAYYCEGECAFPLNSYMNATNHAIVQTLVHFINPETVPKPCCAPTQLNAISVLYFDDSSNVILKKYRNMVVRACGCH
Procedure: as §1

[12] = Pharmacokinetic studies in rats; type: in vivo
Procedure: The ActRIIA-hFc was very stable in pharmacokinetic studies. Rats were dosed with 1 mg/kg, 3 mg/kg, or 10 mg/kg of ActRIIA-hFc protein, and plasma levels of the protein were measured at 24, 48, 72, 144 and 168 hours. In a separate study, rats were dosed at 1 mg/kg, 10 mg/kg, or 30 mg/kg.

[13] = molecular target: T10, GDF8; assay: Similar Biacore binding assay (Example 1)
[14] = molecular target: T5, BMP10; assay: Similar Biacore binding assay (Example 1)
[15] = molecular target: T1, activin B; assay: Similar Biacore binding assay (Example 1)
[16] = molecular target: T3, BMP6; assay: Similar Biacore binding assay (Example 1)
[17] = Pharmacokinetics in cynomolgus monkeys; type: in vivo
[18] = initial administration of 1 mg/kg
[19] = initial administration of 10 mg/kg

| ka [1] [M⁻¹ s⁻¹] | kd [1] [s⁻¹] | ka [2] [M⁻¹ s⁻¹] | kd [2] [s⁻¹] | ka [3] [M⁻¹ s⁻¹] | kd [3] [s⁻¹] | ka [4] [M⁻¹ s⁻¹] | kd [4] [s⁻¹] | kd ([5]; ligand BMP10, Table 14) | ka [6] [M⁻¹ s⁻¹] | kd [6] [s⁻¹] | ka [8] [M⁻¹ s⁻¹] | kd [8] [s⁻¹] | ka [9] [M⁻¹ s⁻¹] | kd [9] [s⁻¹] | ka [10] [M⁻¹ s⁻¹] | kd [10] [s⁻¹] | ka [11] [M⁻¹ s⁻¹] | kd [11] [s⁻¹] | Substance | activin B binding [1] | further results |
| --- | --- | --- | --- | --- | --- | --- | --- | --- | --- | --- | --- | --- | --- | --- | --- | --- | --- | --- | --- | --- | --- |
| 1.1e+07 | 0.00011 | 1.5e+06 | 0.0036 | 2.7e+08 | 0.022 | 2.8e+07 | 0.00026 | 0.0025 s⁻¹ | 7.3e+07 | 0.00092 | 2.2e+07 | 0.0079 | 1.4e+07 | 0.00062 | 1.4e+06 | 0.0014 | 8.9e+06 | 0.033 | ActRIIA-Fc homodimer: ActRIIA-Fc homodimeric complex used as comparator in Example 17 | highest affinity | ka ([5]; ligand BMP10, Table 14): 2.9e+07 M⁻¹ s⁻¹; kd [7]: Transient* |
| 9.5e+06 | 0.00048 | 4.9e+07 | 0.0048 | 5.4e+06 | 0.012 | 1.8e+07 | 0.00023 | Transient* | 3e+07 | 0.00065 | 3.2e+06 | 0.00054 | 7.4e+06 | 0.00024 | 1.8e+07 | 0.0028 | 2e+07 | 0.072 | ActRIIA-Fc:ALK4-Fc heterodimer: soluble heteromeric complex of extracellular domains of human ActRIIA and human ALK4, each separately fused to an Fc domain with a linker | reduced affinity (albeit still within the high-affinity range) | activin AB binding ([4]; Example 17): strong binding; BMP10 binding ([5]; Example 17): markedly reduced binding; GDF11 binding ([6]; Example 17): strong binding; KD [7]: No binding; activin AC binding ([8]; Example 17): particularly enhanced binding; activin A binding ([9]; Example 17): enhanced binding |
|  |  |  |  |  |  |  |  |  |  |  |  |  |  |  |  |  |  |  | ActRIIA-hFc: extracellular domain of human ActRIIa fused to a human Fc domain with a minimal linker; homodimer |  | serum half-life [12]: 11 to 14 days; circulating levels of the drug after two weeks [12, 18]: 11 µg/mL; circulating levels of the drug after two weeks [12, 19]: 110 µg/mL; affinity for GDF8 [13]: high to moderate affinity; affinity for BMP10 [14]: high to moderate affinity; affinity for activin B [15]: high to moderate affinity; affinity for BMP6 [16]: high to moderate affinity; plasma half-life [17]: greater than 14 days; circulating levels of the drug [17, 18]: 25 µg/mL; circulating levels of the drug [17, 19]: 304 µg/mL; circulating levels of the drug ([17]; initial administration of 30 mg/kg): 1440 µg/mL |
